The DeepSol protein solubility set

Experiment: soluble on expression in E. coli; label from the status in PepcDB or PDB records

Sequence | soluble on expression in E. coli
MGSDKIHHHHHHMLRRIKAEQLQVGMFVARLGGPWHARAFRRSRFLVTSEEQVGEIRSSGVDEVWIDILKGRNAPTPQAATSPWETPEPAPALATANSLPAEFGLARELLQSGKSVIGSMFADVRMGRALEVSGALLLVDSASQSLSRHSQALIALARLKARDDYSYMHAFAVCALMVAVGRTMELPPEEVRDLGLAGLLHDIGKLTLPEAVLHKPTSRRPGEDEEIKRHPSAGYRILNEARLNANIVLDVCVHHHERVDGRGYPFGLVGRELSVHARIAAICDTYDSLTSSRPGHQQWSPARAMEYMAVRVDTLFDSRVFKAFTRTVGIYPLGTVLRLRSNRLAVVCAQHESEPLRPRVMAFYSVSASSALTPEVIDLSTSDDTVVAFEDPADWGYTDEQLLAIYAGQGQAGAAQAAAMAMPAA | not soluble
MHHHHHHLESSGDFSLLSSPINREKNGTEIVKFSIHPYKGTVIRLGEEILPFKVLEMDKNIALVEMAIPVYKDEKEIELKLSSPGFQNSSYRIRKPEELNEKLIALDKEGITHRFISRFKTGFQPKSVRFIDNTRLAIPLLEDEGMDVLDINSGQTVRLSPPEKYKKKLGFVETISIPEHNELWVSQMQANAVHVFDLKTLAYKATVDLTGKWSKILLYDPIRDLVYCSNWISEDISVIDRKTKLEIRKTDKIGLPRGLLLSKDGKELYIAQFSASNQESGGGRLGIYSMDKEKLIDTIGPPGNKRHIVSGNTENKIYVSDMCCSKIEVYDLKEKKVQKSIPVFDKPNTIALSPDGKYLYVSCRGPNHPTEGYLKKGLVLGKVYVIDTTTDTVKEFWEAGNQPTGLDVSPDNRYLVISDFLDHQIRVYRRDGF | soluble
VEQSANAFLLVNCNGVVEYVNPSFTAITQYSSEEVSGNKLSELPALENLNQLLLEANSSLTSSNSWQGEFKSRRKNLEPYWGQLSISKVYGDNRELTHYIGIYEDIT | not soluble
MRRCIELAKNGLCNVAPNPMVGAVIVCDGLIIGEGYHIRCGEAHAEVNAIRSVKDKSLLSRSTIYVSLEPCSHYGKTPPCADLIIEKQIPRIVIGCQDPFSQVAGRGIQKLRDAGREVTVGVLEKECRYLIRRFITFNTLHRPFITLKWAESADHFIDVERTDGNPVVLSSPLTSMLVHKKRAETDAIMVGRRTALLDNPSLTVRNWYGRNPVRIVLDRALSLPHSLRLFDGEVPTIVFTAEKHPDKKNVTYRTIEFTQDILPQIMKVLYQQKIQSLLVEGGSQLLQSFIDAELWDEVYIEKCPCKLNSGVKAPEISDNFSYSTEKHFDRQIWHYVFEK | not soluble
MSELLQYSRIKYECTCGKFRTLPDLVFCRYCFKIKCDDCSLGEVDNIFCPRCLEPSSVPEARLKKHKCASCNDCPKCANVLSARTENDNVYLVCQYCRWSSREANQEDQENTKSWPTKENPLVNQLGEVTAYMKRLELIENAPKDLKKGKSGKAWTAFHLKDKFGFQQMVDKRKKALAPEMNPVDAHAPTEAPTLEDEIKERTDDLRTLDQIIMQPLINISEPLLPVQVPLAGRVQVRCDECERTLIKRDFGVTTFKFKISSFARQFVPDIRMSRPVDDLKVGETSHVFLSITNLSSSAMDLTIAPQSGNGFIQCSSDPIQLLLPSSRASDTAAPGVHADQSDVIVFRQHNRVGLRLDVIPTEMDLSSPCLNLLITYCQDGSFRLSSASDKILKPEETCPDPILSANLKVDLR | not soluble
MKNIAAAGVLERIRRLAPQASVPPYRTVEEWREWQLAEGRKRSEEINRQNHQLRVEKILNRSGIQPLHSKCSFANYQVQNDGQKYALSQAKSIADELMTGCTNFVFSGKTGTGKNHLAAAMGNRLMAKGRSVIIVTVSDVMSVLHDSYDNGKSGEKFLQELCSVDLLVLDEIGVQRETKNEQVVLHQIIDRRTASLCSVGMLTNLNHAAMSTLLGERIMDRMTMNGGRWVTFNWDSWRPNVSNMRVVK | soluble
MLAPKAFLDALSGHASRLFNGETPVPRSEFETQFKALLQSGFSKLDLVSREEFDSQMAVLARTRARLEALEAKMAELEGKVGGAEKAGSE | not soluble
MKIYSQGDQAIVVSIEKNVSQRLTEDLLSLRAYLIDKSYPFITEIVATESDLMICYDARDMIKHHHIQSPFLYMKALIDSIKLEIRHHRQQLQAKYIQKQQSVNIPVIYGGEFGPDLQHLLKHLKLKLEDFVKLHTQEKYFVSMMGYSPGFPYLTGMNKKLHVNHTSEKKKFIPCGSVIMEGKKCGIVTTDTYNDWLVIGYTPVQLFFPEQQNFTLLKLGDNVTFESKDINEIELGDYKTCQSLEHHHHHH | not soluble
MRPLTLHTPKPLVRAGGIPLIEYHLNALRAAGFHQLVINHAWLGQQIEDYLGDGQRFDLSIRYSAEGQPLETGGGIQRALPLLGAEPFVVVNGDVWTDYDFGALRMPLAGLAHLVLIDNPAHHPTGDFSLVDGQVRDDDSAGLRLTYSGIAILHPQLFADCEPGAFKLAPLLREAMHQGLVTGEHFKGRWVDVGTHERLAEVEQLLAETRLEHHHHHH | not soluble
MNLSIFGLKNIPYLKEGDSIEKLIEESIKTSEFFIEDNDVLCIASKVVSIAEGQVMSLNEIQVSDVAKEIHRNIPRKDPRIIEIMLNLVNRDLSRLDIKKNYIGCRLENGLKLTSGGIDRKSVDEVFLLPNNPDASAKRISEYLKKSLGKNVAVVITDSDGREDKRGATQVAIGIYGIHPLRKTEVIDSQGETIKFQEETLCDMIAACAGLVMGQRGTGIPAVLIRGLDYKWSENTSIKEALNE | not soluble
MSSETITVERSGKVHHAEGDAARLDAYIPSECPQNHAANLLHLPNGDVLCVWFGGTQEGIADISIYMSRLVKDSGSWSKAAKLSEDATRSEQNPVLFLAPDNVLWLLYTAQKSGNQDTAIVRYRQSTDLGATWGEIGTLLDQPGTFIRQPITVLENGDWLLPVFYCRVQPGEKWVGNDDDSAVKISSDQGKTWREYPVPNSTGCVHMNITPLQDGTLLALYRSRWADFIYQSRSTDGGKTWSEPVATDLPNNNSSIQVTTLKNGHLALVFNHMSAADATDRRLSLYDEIEDEEDKASGAKMPEVQAGDRSAFWGAPRAPMTLAISEDGGKSWPYQRNIEVGDGYCMTNNSTEKLNREFSYPSVKQAPDGKLHVAFTYFRQAIKHVVVSEEWVKAGLEHHHHHH | not soluble
MEPLKHECGIAMVRLRKPLSYYHDKYGTWMYGLNKLYLLMEKQHNRGQEGAGLAVVKLNSRPGEEYLFRERALGANAISEIFDSVHKDFQAYSREELGDAEFAASQIPYAGECYMGHLRYSTTGKSGLTFVHPMIRRSNWRAKCLSICGNFNLTNVDGIFDEITSVGQHPRNMSDTHILLEQIGHRLDREVERLFRIGKEQNLKGMDITHFIEERIDLSNVLKKCSPFWDGGYVMCGLTGSGESYAVRDPWGIRPAFYYIDDEIVVTASERPVIQTVMNLSAEAVRELMPGEAIFVNSKGEPRIERILETKNYQACSFERIYFSRGSDQDIYRERKALGYLLSERILRAIDYDISHTVFSFIPNTAEVAYYGMLEGIDHYLDECKIREIRENPNMSEAKLREILGRKVRSEKVAIKDIKLRTFITEGNSRNDLAAHVYDITYGTVQAGVDNLVVIDDSIVRGTTLRQSIIGIMDRLQPKKIVIVSSSPQIRYPDYYGIDMRKMREFVAFRSAVALLQERGMEQVLHDAYAKALELRKLSSGQEVENVVKTIYKPFTAEEISAKMVELLKPEGVRAKVEIVYQSLEGLHQAIPNHPGDWYFSGDYPTPGGAHLVNEAFISYMEEDYGK | not soluble
MHHHHHHSSGVDLGTENLYFQSMTKTWTLKKHFVGYPTNSDFELKTSELPPLKNGEVLLEALFLTVDPYMRVAAKRLKEGDTMMGQQVAKVVESKNVALPKGTIVLASPGWTTHSISDGKDLEKLLTEWPDTIPLSLALGTVGMPGLTAYFGLLEICGVKGGETVMVNAAAGAVGSVVGQIAKLKGCKVVGAVGSDEKVAYLQKLGFDVVFNYKTVESLEETLKKASPDGYDCYFDNVGGEFSNTVIGQMKKFGRIAICGAISTYNRTGPLPPGPPPEIVIYQELRMEAFVVYRWQGDARQKALKDLLKWVLEGKIQYKEYIIEGFENMPAAFMGMLKGDNLGKTIVKA | soluble
MRATEDHTIFDRGVGQRDQLQRLWTPYRMNYLAEAPVKRDPNSSASPAQPFTEIPQLSDEEGLVVARGKLVYAVLNLYPYNPGHLMVVPYRRVSELEDLTDLESAELMAFTQKAIRVIKNVSRPHGFNVGLNLGTSAGGSLAEHLHVHVVPRWGGDANFITIIGGSKLEHHHHHH | not soluble
MDPNFHNTGPSGSAPRKPETWRSCKEANKVIEMFYSEGNFYHDIYMEELANLAETSHKNVRDTLSRLRKKDERAGKYVPPPPKQMYEFTSEQRGALDQAFLVTPQMDSDGARELSEITGLTVKQINNWFCNQRRKADGRSAEKDKKRRERIREDMKKNGLGRVGTFRSEAVELFEKEYETMLQLEAIGGGKVRIPYTELVEKTGMERKKIRDWFSKRKGRDKRFLENMENTREVSPQNTQQNIQDILIKIVTQKEESALQRHAPEMRDAGQRDGFCLFGFFLRD | not soluble
MGSDKIHHHHHHMAEITSISQFLSTAKTQFQVYDLGRRVQHIDAMAFAQIEALQAPYPYPIQGHAKMALVFWDASEQHFVWFISLPLDERGLLSPAPRSHFIQMILEALGQDLTRTLSEDEQQKMANHPFSFKPTQEKLAVFNALVRRHLGRSASSQYEFAAQYLSGQLPAESWPNVGFQGLADICVRLGELDHAAMVARALKNAPMEVQIALCQCLEHVLVSDEVKDALLAGLEEHRDARLIYFLRALGSQSDASVRAIASLAEKRLLTEEVLICIAGRNWLALRDDVCRKNFLEALALMPQDFFNQVFADIVAIPALRTSMLMAIRDPNRSDALSLAIGGLFKATKS | not soluble
MKLIVSGKNLEVTEGLREAVEKQISKLEKYFKPEVEAHVTLSVEKNRQIVEVTIPFNGVILRGEETNNDMYASIDIVGDKLERQVRKQKTKLERRKYSDSLKFQNIPDYHKEEQEPEIVKTKRFAIKPMSEEEAVLEMELLGHNFFVFQNGDSNEVNVVYKRKDGNYGLIEPEFLEHHHHHH | soluble
MGSSHHHHHHSSGLVPRGSHMTVEQTPENPGTAARAAAEETVNDILQGAWKARAIHVAVELGVPELLQEGPRTATALAEATGAHEQTLRRLLRLLATVGVFDDLGHDDLFAQNALSAVLLPDPASPVATDARFQAAPWHWRAWEQLTHSVRTGEASFDVANGTSFWQLTHEDPKARELFNRAMGSVSLTEAGQVAAAYDFSGAATAVDIGGGRGSLMAAVLDAFPGLRGTLLERPPVAEEARELLTGRGLADRCEILPGDFFETIPDGADVYLIKHVLHDWDDDDVVRILRRIATAMKPDSRLLVIDNLIDERPAASTLFVDLLLLVLVGGAERSESEFAALLEKSGLRVERSLPCGAGPVRIVEIRRA | soluble
GSSWSAINPEYAARMRIQNRFKTGLDIAKYTAAIMRKDMAEYDADSSVYTQSLGCWHGFIGQQKLISIKKHLKTTNKRYLYLSGWMVAALRSDFGPLPDQSMHEKTAVSGLIEELYTFLRQADARELDLLFTGLDAARAAGDKAKEAELLAQIDNFETHVVPIIADIDAGFGNAEATYLLAKKMIEAGACCIQIENQVSDEKQCGHQDGKVTVPHIDFLAKINAVRYAFLELGVDDGVIVARTDSLGAGLTKQIAVTNEPGDLGDLYNSFLDCEEISESELGNGDVVIKREGKLLRPKRLASNLFQFRKGTGEDRCVLDCITSLQNGADLLWIETEKPHVGQIKAMVDRIREVIPNAKLVYNNSPSFNWTLNFRQQVFDAFVAEGKDVSAYDRNKLMSVEYDDTELAKVADEKIRTFQRDGSAHAGIFHHLITLPTYHTAALSTDNLAKGYFADEGMLAYVKGVQRQELRQGIACVKHQNMAGSDIGDNHKEYFAGEAALK | not soluble
MVGVMSNSSALSREFVKIEIGGKVIKGNSKVENSGDYFDGHCPQAFHAFSGIDGTVFDLINLKLRVTKHIQDLLENFFKRGEKEVKIEILRRESTKSGSAYSSFKVVYQGCRMHNMLLAHDNDSNLILELSFTPEESVSIEMNIPSDDGKSTEKLGPMTYNLYKEALV | not soluble
